Assay results reported in PMC9105370, “Human Serine Racemase Weakly Binds the Third PDZ Domain of PSD-95” (International Journal of Molecular Sciences, 2022).
Each block holds one molecule with its values, some of them ahead of it.

Assays:
[1] = target: Human serine racemase (human) (UniProt Q9GZT4); experiment: ITC; PSD-95 PDZ3 (600 uM, syringe) titrated into hSR (20 uM, cell); 25 °C, 50 mM HEPES pH 8.0; single-site model
[2] = target: Human serine racemase (human) (UniProt Q9GZT4)
[3] = target: the molecule itself; experiment: cross-linking; 0.1% (w/v) glutaraldehyde, 10 min, room temperature, 50 mM HEPES pH 8.0; 15 uM hSR and 30 uM PSD-95 PDZ3, together or each alone; SDS-PAGE

Kd [1]: 82 µM
hSR activity (beta-elimination of L-serine, LDH-coupled assay), 0.44 uM hSR with 500 uM PSD-95 PDZ3, in the absence of ATP [2]: 22%
Molecule: Third PDZ domain of postsynaptic density protein 95 (domain or fragment)

B1: Human serine racemase (enzyme, UniProt Q9GZT4 1-340, looked up)
chain: MCAQYCISFADVEKAHINIRDSIHLTPVLTSSILNQLTGRNLFFKCELFQKTGSFKIRGALNAVRSLVPDALERKPKAVVTHSSGNHGQALTYAAKLEGIPAYIVVPQTAPDCKKLAIQAYGASIVYCEPSDESRENVAKRVTEETEGIMVHPNQEPAVIAGQGTIALEVLNQVPLVDALVVPVGGGGMLAGIAITVKALKPSVKVYAAEPSNADDCYQSKLKGKLMPNLYPPETIADGVKSSIGLNTWPIIRDLVDDIFTVTEDEIKCATQLVWERMKLLIEPTAGVGVAAVLSQHFQTVSPEVKNICIVLSGGNVDLTSSITWVKQAERPASYQSVSV
notes: human serine racemase (EC 5.1.1.18), PLP-dependent homodimer; monomer 38 kDa; also called hSR; SR; source: E. coli BL21 CodonPlus (DE3)-RIL co-expressing GroEL and GroES, purified (TALON resin); not shown: His6, N-terminal, kept
binding result [3]: binds
